Measured values taken from doi:10.1101/2020.11.17.387225.

Tests used:
[1] = biological target: EccB5 (Mycobacterium xenopi); assay: cryo-EM structure
[2] = biological target: EccD5 (Mycobacterium xenopi); assay: cryo-EM structure

Which stoichiometry N [1] does the source give for EccB5 (natural protein) here?
The stoichiometry N was 6.

EccD5 (natural protein) was tested. Which stoichiometry N [2] did it give?
The stoichiometry N was 2.
